Starred links: 1 amine or outer side, 2 acyl side, 3 side chain; linkers in the order of their positions; H or OH if unused. Non-standard residues stand in square brackets, D forms with d. Groups on a side chain read outwards from the residue. *: point of attachment. C20 diacid = O=C(O)CCCCCCCCCCCCCCCCCCC(=O)*; γGlu = O=C(O)[C@H](CCC(=O)[*:2])N[*:1]; Palmitoyl = CCCCCCCCCCCCCCCC(=O)*; Aib = CC(C)(N)C(=O)O
T1: human GIP receptor (human, UniProt P48546 22-466)
T1 sequence (looked up): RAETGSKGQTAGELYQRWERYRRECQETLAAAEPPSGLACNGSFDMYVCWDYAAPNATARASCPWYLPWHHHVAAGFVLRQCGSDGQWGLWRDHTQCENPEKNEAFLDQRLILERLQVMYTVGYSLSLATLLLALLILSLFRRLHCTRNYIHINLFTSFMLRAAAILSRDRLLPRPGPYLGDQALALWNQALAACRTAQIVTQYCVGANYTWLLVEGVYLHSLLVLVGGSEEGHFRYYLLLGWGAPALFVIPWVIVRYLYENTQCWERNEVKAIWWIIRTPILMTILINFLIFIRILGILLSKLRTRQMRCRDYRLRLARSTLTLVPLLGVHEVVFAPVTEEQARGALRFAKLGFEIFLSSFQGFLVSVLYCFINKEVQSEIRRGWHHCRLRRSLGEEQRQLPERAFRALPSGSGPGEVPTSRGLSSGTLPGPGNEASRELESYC


Experiments:
Assay in all cases: cell-based or functional assay
human GIP receptor [1] = molecular target: T1, human GIP receptor
human GIP receptor [2] = molecular target: T1, human GIP receptor; remark: listed apart in the source
human GLP-1 receptor = human GLP-1 receptor (human, UniProt P43220 24-463)

Binder | EC50, hGIP-R level of cAMP (HEK293 cells expressing human GIP R) (human GIP receptor [1]) [pM] | EC50 hGIP R (cAMP, HEK293 cells expressing the GIP R) (human GIP receptor [2]) [pM] | EC50 hGLP1 R (cAMP, HEK293 cells expressing the GLP-1R) (human GLP-1 receptor) [pM]
H-Y[Aib]EGTFISDYSIELDKIHQQDFVNWLLAQGPSSGAPPPSK([Peg3-Peg3-γGlu-C20 diacid])-NH2 [Compound 4] | 13 | 14 | –
H-Y[Aib]EGTFISDYSIELDKK([γGlu-Palmitoyl])HQQDFVNWLLAQGPSSGAPPPS-NH2 (SMILES CCCCCCCCCCCCCCCC(=O)N[C@@H](CCC(=O)NCCCC[C@H](NC(=O)[C@H](CCCCN)NC(=O)[C@H](CC(=O)O)NC(=O)[C@H](CC(C)C)NC(=O)[C@H](CCC(=O)O)NC(=O)[C@@H](NC(=O)[C@H](CO)NC(=O)[C@H](Cc1ccc(O)cc1)NC(=O)[C@H](CC(=O)O)NC(=O)[C@H](CO)NC(=O)[C@@H](NC(=O)[C@H](Cc1ccccc1)NC(=O)[C@@H](NC(=O)CNC(=O)[C@H](CCC(=O)O)NC(=O)C(C)(C)NC(=O)[C@@H](N)Cc1ccc(O)cc1)[C@@H](C)O)[C@@H](C)CC)[C@@H](C)CC)C(=O)N[C@@H](Cc1c[nH]cn1)C(=O)N[C@@H](CCC(N)=O)C(=O)N[C@@H](CCC(N)=O)C(=O)N[C@@H](CC(=O)O)C(=O)N[C@@H](Cc1ccccc1)C(=O)N[C@H](C(=O)N[C@@H](CC(N)=O)C(=O)N[C@@H](Cc1c[nH]c2ccccc12)C(=O)N[C@@H](CC(C)C)C(=O)N[C@@H](CC(C)C)C(=O)N[C@@H](C)C(=O)N[C@@H](CCC(N)=O)C(=O)NCC(=O)N1CCC[C@H]1C(=O)N[C@@H](CO)C(=O)N[C@@H](CO)C(=O)NCC(=O)N[C@@H](C)C(=O)N1CCC[C@H]1C(=O)N1CCC[C@H]1C(=O)N1CCC[C@H]1C(=O)N[C@@H](CO)C(N)=O)C(C)C)C(=O)O) [Compound 1] | 8 | 3 | –
H-Y[Aib]EGTFISDYSIELDK([γGlu-Palmitoyl])IHQQDFVNWLLAQGPSSGAPPPS-NH2 (SMILES CCCCCCCCCCCCCCCC(=O)N[C@@H](CCC(=O)NCCCC[C@H](NC(=O)[C@H](CC(=O)O)NC(=O)[C@H](CC(C)C)NC(=O)[C@H](CCC(=O)O)NC(=O)[C@@H](NC(=O)[C@H](CO)NC(=O)[C@H](Cc1ccc(O)cc1)NC(=O)[C@H](CC(=O)O)NC(=O)[C@H](CO)NC(=O)[C@@H](NC(=O)[C@H](Cc1ccccc1)NC(=O)[C@@H](NC(=O)CNC(=O)[C@H](CCC(=O)O)NC(=O)C(C)(C)NC(=O)[C@@H](N)Cc1ccc(O)cc1)[C@@H](C)O)[C@@H](C)CC)[C@@H](C)CC)C(=O)N[C@H](C(=O)N[C@@H](Cc1c[nH]cn1)C(=O)N[C@@H](CCC(N)=O)C(=O)N[C@@H](CCC(N)=O)C(=O)N[C@@H](CC(=O)O)C(=O)N[C@@H](Cc1ccccc1)C(=O)N[C@H](C(=O)N[C@@H](CC(N)=O)C(=O)N[C@@H](Cc1c[nH]c2ccccc12)C(=O)N[C@@H](CC(C)C)C(=O)N[C@@H](CC(C)C)C(=O)N[C@@H](C)C(=O)N[C@@H](CCC(N)=O)C(=O)NCC(=O)N1CCC[C@H]1C(=O)N[C@@H](CO)C(=O)N[C@@H](CO)C(=O)NCC(=O)N[C@@H](C)C(=O)N1CCC[C@H]1C(=O)N1CCC[C@H]1C(=O)N1CCC[C@H]1C(=O)N[C@@H](CO)C(N)=O)C(C)C)[C@@H](C)CC)C(=O)O) [Compound 2] | 13 | 8 | –
H-Y[Aib]EGTFISDYSIELDKIHQQDFVNWLLAQGPSSGAPPPSK([γGlu-Palmitoyl])-NH2 (SMILES CCCCCCCCCCCCCCCC(=O)N[C@@H](CCC(=O)NCCCC[C@H](NC(=O)[C@H](CO)NC(=O)[C@@H]1CCCN1C(=O)[C@@H]1CCCN1C(=O)[C@@H]1CCCN1C(=O)[C@H](C)NC(=O)CNC(=O)[C@H](CO)NC(=O)[C@H](CO)NC(=O)[C@@H]1CCCN1C(=O)CNC(=O)[C@H](CCC(N)=O)NC(=O)[C@H](C)NC(=O)[C@H](CC(C)C)NC(=O)[C@H](CC(C)C)NC(=O)[C@H](Cc1c[nH]c2ccccc12)NC(=O)[C@H](CC(N)=O)NC(=O)[C@@H](NC(=O)[C@H](Cc1ccccc1)NC(=O)[C@H](CC(=O)O)NC(=O)[C@H](CCC(N)=O)NC(=O)[C@H](CCC(N)=O)NC(=O)[C@H](Cc1c[nH]cn1)NC(=O)[C@@H](NC(=O)[C@H](CCCCN)NC(=O)[C@H](CC(=O)O)NC(=O)[C@H](CC(C)C)NC(=O)[C@H](CCC(=O)O)NC(=O)[C@@H](NC(=O)[C@H](CO)NC(=O)[C@H](Cc1ccc(O)cc1)NC(=O)[C@H](CC(=O)O)NC(=O)[C@H](CO)NC(=O)[C@@H](NC(=O)[C@H](Cc1ccccc1)NC(=O)[C@@H](NC(=O)CNC(=O)[C@H](CCC(=O)O)NC(=O)C(C)(C)NC(=O)[C@@H](N)Cc1ccc(O)cc1)[C@@H](C)O)[C@@H](C)CC)[C@@H](C)CC)[C@@H](C)CC)C(C)C)C(N)=O)C(=O)O) [Compound 5] | 14 | 14 | –
H-Y[Aib]EGTFISDYSIELDKIHQQDFVNWLLAQK([γGlu-Palmitoyl])-NH2 (SMILES CCCCCCCCCCCCCCCC(=O)N[C@@H](CCC(=O)NCCCC[C@H](NC(=O)[C@H](CCC(N)=O)NC(=O)[C@H](C)NC(=O)[C@H](CC(C)C)NC(=O)[C@H](CC(C)C)NC(=O)[C@H](Cc1c[nH]c2ccccc12)NC(=O)[C@H](CC(N)=O)NC(=O)[C@@H](NC(=O)[C@H](Cc1ccccc1)NC(=O)[C@H](CC(=O)O)NC(=O)[C@H](CCC(N)=O)NC(=O)[C@H](CCC(N)=O)NC(=O)[C@H](Cc1c[nH]cn1)NC(=O)[C@@H](NC(=O)[C@H](CCCCN)NC(=O)[C@H](CC(=O)O)NC(=O)[C@H](CC(C)C)NC(=O)[C@H](CCC(=O)O)NC(=O)[C@@H](NC(=O)[C@H](CO)NC(=O)[C@H](Cc1ccc(O)cc1)NC(=O)[C@H](CC(=O)O)NC(=O)[C@H](CO)NC(=O)[C@@H](NC(=O)[C@H](Cc1ccccc1)NC(=O)[C@@H](NC(=O)CNC(=O)[C@H](CCC(=O)O)NC(=O)C(C)(C)NC(=O)[C@@H](N)Cc1ccc(O)cc1)[C@@H](C)O)[C@@H](C)CC)[C@@H](C)CC)[C@@H](C)CC)C(C)C)C(N)=O)C(=O)O) [Compound 6] | 32 | 14 | –
H-Y[Aib]EGTFISDYSIELDKIHQQDFVNWLLAQKGK([γGlu-Palmitoyl])-NH2 (SMILES CCCCCCCCCCCCCCCC(=O)N[C@@H](CCC(=O)NCCCC[C@H](NC(=O)CNC(=O)[C@H](CCCCN)NC(=O)[C@H](CCC(N)=O)NC(=O)[C@H](C)NC(=O)[C@H](CC(C)C)NC(=O)[C@H](CC(C)C)NC(=O)[C@H](Cc1c[nH]c2ccccc12)NC(=O)[C@H](CC(N)=O)NC(=O)[C@@H](NC(=O)[C@H](Cc1ccccc1)NC(=O)[C@H](CC(=O)O)NC(=O)[C@H](CCC(N)=O)NC(=O)[C@H](CCC(N)=O)NC(=O)[C@H](Cc1c[nH]cn1)NC(=O)[C@@H](NC(=O)[C@H](CCCCN)NC(=O)[C@H](CC(=O)O)NC(=O)[C@H](CC(C)C)NC(=O)[C@H](CCC(=O)O)NC(=O)[C@@H](NC(=O)[C@H](CO)NC(=O)[C@H](Cc1ccc(O)cc1)NC(=O)[C@H](CC(=O)O)NC(=O)[C@H](CO)NC(=O)[C@@H](NC(=O)[C@H](Cc1ccccc1)NC(=O)[C@@H](NC(=O)CNC(=O)[C@H](CCC(=O)O)NC(=O)C(C)(C)NC(=O)[C@@H](N)Cc1ccc(O)cc1)[C@@H](C)O)[C@@H](C)CC)[C@@H](C)CC)[C@@H](C)CC)C(C)C)C(N)=O)C(=O)O) [Compound 7] | 18 | 32 | –
H-Y[Aib]EGTFISDYSIELEKK([γGlu-Palmitoyl])HQQDFVNWLLAQGPSSGAPPPS-NH2 (SMILES CCCCCCCCCCCCCCCC(=O)N[C@@H](CCC(=O)NCCCC[C@H](NC(=O)[C@H](CCCCN)NC(=O)[C@H](CCC(=O)O)NC(=O)[C@H](CC(C)C)NC(=O)[C@H](CCC(=O)O)NC(=O)[C@@H](NC(=O)[C@H](CO)NC(=O)[C@H](Cc1ccc(O)cc1)NC(=O)[C@H](CC(=O)O)NC(=O)[C@H](CO)NC(=O)[C@@H](NC(=O)[C@H](Cc1ccccc1)NC(=O)[C@@H](NC(=O)CNC(=O)[C@H](CCC(=O)O)NC(=O)C(C)(C)NC(=O)[C@@H](N)Cc1ccc(O)cc1)[C@@H](C)O)[C@@H](C)CC)[C@@H](C)CC)C(=O)N[C@@H](Cc1c[nH]cn1)C(=O)N[C@@H](CCC(N)=O)C(=O)N[C@@H](CCC(N)=O)C(=O)N[C@@H](CC(=O)O)C(=O)N[C@@H](Cc1ccccc1)C(=O)N[C@H](C(=O)N[C@@H](CC(N)=O)C(=O)N[C@@H](Cc1c[nH]c2ccccc12)C(=O)N[C@@H](CC(C)C)C(=O)N[C@@H](CC(C)C)C(=O)N[C@@H](C)C(=O)N[C@@H](CCC(N)=O)C(=O)NCC(=O)N1CCC[C@H]1C(=O)N[C@@H](CO)C(=O)N[C@@H](CO)C(=O)NCC(=O)N[C@@H](C)C(=O)N1CCC[C@H]1C(=O)N1CCC[C@H]1C(=O)N1CCC[C@H]1C(=O)N[C@@H](CO)C(N)=O)C(C)C)C(=O)O) [Compound 3] | 14 | 14 | –
H-Y[Aib]EGTFISDYSIELDKK([Peg3-Peg3-γGlu-C20 diacid])HQQDFVNWLLAQGPSSGAPPPS-NH2 [Compound 9] | 8 | 9 | > 3000

Reference: US10253078 (ZEALAND PHARMA A S, dated 2019)
